This is an account of results in patent US20260258135A1 (BIOINTRON BIOLOGICAL, published 2026).

Substitutions are numbered along the chain they refer to.

To fix the notation:
B1: B378737-97-2 (VHH)
VHH: QVRLVESGGGLVQPGGSLRLSCAASARSINGMEWYRQAPGERRELVAGITAGGSAYYTDTVKGRFTISRDNAENTGYLQMNSLSPDDTAVYYCRRQVGPNWYWGQGTQVTVSS
notes: Single-point mutant of B378737 (position 97); copied as printed; not shown: human IgG Fc implied (supernatant captured with goat anti-human IgG Fc)
B2: B378737-97-1 (VHH)
VHH: B1 VHH with R3Q, V97F
notes: Single-point mutant of B378737 (position 97); not shown: human IgG Fc implied (supernatant captured with goat anti-human IgG Fc)
B3: B378737-ZH-2 (VHH)
VHH: B1 VHH with R3Q, M32Q
notes: Hotspot combination (positions 32 and 97); not shown: human IgG Fc implied (supernatant captured with goat anti-human IgG Fc)
B4: B378737-32 (VHH)
VHH: B1 VHH with R3Q, M32Q, V97Y
notes: Single-point mutant of B378737 (position 32); not shown: human IgG Fc implied (supernatant captured with goat anti-human IgG Fc)
B5: B378737-61-1 (VHH)
VHH: B1 VHH with R3Q, V61P, V97Y
notes: Single-point mutant of B378737 (position 61); not shown: human IgG Fc implied (supernatant captured with goat anti-human IgG Fc)
B6: B378737-51 (VHH)
VHH: B1 VHH with R3Q, A51S, V97Y
notes: Single-point mutant of B378737 (position 51); not shown: human IgG Fc implied (supernatant captured with goat anti-human IgG Fc)
B7: B378737-61-6 (VHH)
VHH: B1 VHH with R3Q, V61K, V97Y
notes: as for B5
B8: B378737-61-7 (VHH)
VHH: B1 VHH with R3Q, V61L, V97Y
notes: as for B5
B9: B378737-61-2 (VHH)
VHH: B1 VHH with R3Q, V61Y, V97Y
notes: as for B5
B10: B378737-61-5 (VHH)
VHH: B1 VHH with R3Q, V61H, V97Y
notes: as for B5
B11: B378737-61-4 (VHH)
VHH: B1 VHH with R3Q, V61T, V97Y
notes: as for B5
B12: B378737-61-3 (VHH)
VHH: B1 VHH with R3Q, V61S, V97Y
notes: as for B5
B13: B378737-ZH-1 (VHH)
VHH: B1 VHH with R3Q, M32Q, V97F
notes: as for B3
B14: B378737-ZH-4 (VHH)
VHH: B1 VHH with R3Q, M32Q, V61H
notes: Hotspot combination (positions 32, 61 and 97); not shown: human IgG Fc implied (supernatant captured with goat anti-human IgG Fc)

For one assay, the target named is T1, PDL1/His protein (human, UniProt Q9NZQ7 19-238, limits assumed, biotin-labeled in Examples 4 and 6 (site not stated); unlabeled in Example 9).
T1 construct: The reagent is named only PDL1/His; also called Biotin-labeled PDL1/His; Bio-PDL1; not shown: His tag
T1 sequence (Q9NZQ7 19-238 limits assumed): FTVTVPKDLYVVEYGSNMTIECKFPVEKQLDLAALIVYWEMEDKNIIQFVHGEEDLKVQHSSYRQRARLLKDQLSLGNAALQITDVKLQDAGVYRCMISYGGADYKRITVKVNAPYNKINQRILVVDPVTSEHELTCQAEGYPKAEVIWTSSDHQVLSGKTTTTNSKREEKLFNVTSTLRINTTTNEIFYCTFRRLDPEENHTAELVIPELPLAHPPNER
The assay is described as follows: hotspot screening sandwich ELISA, anti-human Fc 1.0 ug/mL, Bio-PDL1 4 ng/ml. The procedure:
Goat-anti-human IgG Fc was subjected to serial dilution in Table 5 and coating was performed overnight at 4° C. The coating solution was discarded the next day, and the plate was washed 5 times. Blocking was performed with 1% BSA at room temperature for 1 h, and the plate was washed 5 times. 50 μL B378737 expression supernatant was added to each well, incubation was performed at room temperature for 1 h, and the plate was washed 5 times. Biotin-labeled PDL1/His protein diluted in series was added, incubation was performed at room temperature for 1 h, and the plate was washed 5 times. SA-HRP was added, incubation was performed at room temperature for 0.5 h, and the plate was washed 10 times. TMB color development was terminated after 4 min, and the absorbance at 450 nm was read. […] The sample was the mutant expressing supernatant, and the other processes were the same as above.
For orientation: In an ELISA, binding on a coated surface is turned into a signal by an enzyme label.
As to B1, the binding result is given as “binds”.

For the molecule B2, the binding result was “binds”.

The target of the next assay is T1, PDL1/His protein. The assay is described as follows: sandwich ELISA screen of hotspot combinations, as in Example 4.
For B3, the binding result is given as “binds”.

A further assay has as its target T1, PDL1/His protein. In words: relative affinity ranking, sandwich ELISA, biotin-PDL1/His titrated from 5 ug/mL. The procedure: The expression supernatants of the 11 single-point mutation molecules screened out in Example 4 and the 4 hotspot combination molecules screened out in Example 5 were subjected to relative affinity ranking. The specific process is as follows: The plate was coated with 1 μg/mL Goat-anti-human IgG Fc at 4° C. overnight. The coating solution was discarded the next day, and the plate was washed 5 times. Blocking was performed with 1% BSA at room temperature for 1 h, and the plate was washed 5 times. 50 μL of 2-fold diluted expression supernatant was added to each well and incubation was performed at room temperature for 1 h, and the plate was washed 5 times. Biotin-labeled PDL1/His diluted in series was added with 5 μg/mL in the first well, 3-fold dilution, and the last well as blank, and incubation was performed at room temperature for 1 h, and the plate was washed 5 times. SA-HRP was added, and incubation was performed at room temperature for 0.5 h, and the plate was washed 10 times. TMB color development was terminated after 4 min, and the absorbance at 450 nm was read.
For the molecule B4, the binding result is listed as “binds”.

On to B5, for which the binding result is given as “binds”.

As to B6, the binding result is reported as “binds”.

B7: the binding result is “binds”.

In the case of B8, the binding result is on record as “binds”.

For B9, the binding result is given as “binds”.

For the molecule B10, the binding result is listed as “binds”.

For the molecule B11, the binding result is given as “binds”.

Consider B12, for which the binding result is “binds”.

The target in a further assay is T1, PDL1/His protein. The assay is described as follows: Biacore 8K (SPR), purified antibody. A general note: In SPR one partner is held on a chip, and binding of the other changes the refractive index at the surface.
B13: the “fold increase of affinity over the parent antibody B378737” value came out at 10 times.

For the molecule B14, the “fold increase of affinity over the parent antibody B378737” value came to 12 times.
